Laboratory results as given in the supplement of paper PMC9170038.

Tested on: MS2 coat protein
Experiment: apparent KD of MS2 coat protein; designed switch direction (-1 OFF switch, 1 ON switch): -1; higher = weaker reporter binding
Procedure, shortened: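 Stalled E. coli RNA polymerase transcribed designed RNA switches on Illumina chips, which were then titrated with SNAP-549-labelled MS2 coat protein, doubling from 0.7 or 1.5 nM to 3 µM. Steps lasted from 0.8–1.5 h at the lowest concentration to 10–20 min at the highest. The apparent KD is each design's median over clusters of curve-fitted normalised fluorescence.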

[1] = input ligand: microRNA oligo, concentration not stated
[2] = Eterna round: R95, input ligand: FMN 200 uM
[3] = Eterna round: R95, input ligand: microRNA oligo, concentration not stated
[4] = Eterna round: R95, input ligand: none

| Sequence | apparent KD of MS2 coat protein (input ligand: FMN 200 uM) [nM] | apparent KD of MS2 coat protein (input ligand: none) [nM] | apparent KD of MS2 coat protein [1] [nM] | apparent KD of MS2 coat protein [2] [nM] | apparent KD of MS2 coat protein [3] [nM] | apparent KD of MS2 coat protein [4] [nM] |
| --- | --- | --- | --- | --- | --- | --- |
| AAAACUGGUGUUAGGAUAUUCCUAGGAAAGCUUGGGAAGAAGGGACAUGAGGAUCACCCAUGUCCAGUGAUCAG [Eternabot (Original) Solution 19] (Eterna round: R97, puzzle: Brourd's mod of Exclusion 4) | 19.1 | 21.6 |  |  |  |  |
| CCGAAACAUGAGGAUCACCCAUGUCAGGAUAUUCCAAAAUCGUCGAAAGACGAUAACAGAAGAAGGGACAUCGG [Fiskxlusion 1 - Jieux - Exclusion 1] (Eterna round: R97, puzzle: Exclusion 1) | 93.7 | 58 |  |  |  |  |
| CGAUGCUCGAAUCCACAUGAGGAUCACCCAUGUCGAGUUAGCGAGGAUAUCGGUGACACAUAGUAUGAGAAGGCGCGAACCUGA [Ex NG3 #24] (Eterna round: R96, puzzle: Exclusion NG 3) | 103 | 41.7 | 28 |  |  |  |
| CUUGUCCGAGGAUAUAUUUUGUGAUACAUGAGGAUCACCCAUGUUAUAAGAUGGAUAUAAAUAGAAGGCGGACGAG [Mat - Exclusion 5 - JL mod - D69] (puzzle: Exclusion 5) |  |  |  | 35.7 | 44 | 47 |
| GUUAAUUGUCACAUGGGUGACAUGAGGAUCACCCAUGUCACAAGCUUUUUGUUCGUCUUAUAAUUAACCCAUGUGAC [Stov1/12-B2] (Eterna round: R97, puzzle: Sensor, turn-off variant 1) | 16 | 14.4 |  |  |  |  |
| CUUUUGUGAGGAUAUUAGUAGUAAAUAAAUAUAAUUACUACUGAGAAGGCACAUGAGGAUCACCCAUGUUCCUC [salish99_ex4_r3_058] (puzzle: Exclusion 4) |  |  |  |  | 35.5 |  |
| AGUACUGACACGUUGGUGUUAGUACAAUAAGCUUGUGACACAUGAGGAUCACCCAUGUCCUCAUAAGCUCGUCUUAU [salish99_TOv2_r2_094] (Eterna round: R96, puzzle: Sensor v3, turn-off variant 2) | 22.9 | 25.4 | 468 |  |  |  |
| AAUUUACAUGAGGAUCACCCAUGUGAGGAUAUGGAUUCGCUGGCCGUAGCCAGUGGAUCCAGAAGGCGCGUGAU [JL-ex1-4.28] (Eterna round: R97, puzzle: Exclusion 1) | 182 | 98.2 |  |  |  |  |
| GACUUCUCUGAGGAUAUUGCAUCACCCGAUCUAUAAGAAGGCAGAACAUGAGGAUCACCCAUGUGGGUUUCUAG [Bingo-Bango-27] (Eterna round: R97, puzzle: Exclusion 6) | 40.6 | 29.7 |  |  |  |  |
| GUAGAGUCAGGAUAUACGAGAUCGAAAGAUCGGCGAUCCCUACAUGAGGAUCACCCAUGUAGAAGGGACUCUAC [Eli x2 4.12] (Eterna round: R97, puzzle: Exclusion 2) | 28.7 | 14.9 |  |  |  |  |
| AAACACUGAGGAUAUGCAUAACAACAAAGCCUCACGUGCCAACAUGAGGAUCACCCAUGUAGAAGGCAGUCCAA [Mod R3 Insanara 16 - Jieux - Exclusion 2] (Eterna round: R97, puzzle: Exclusion 2) | 25 | 30 |  |  |  |  |
| ACCGCUUCUGCAGGAUAUGGACAACAUGAGGAUCACCCAUGUGAUCUAUAAAGUAGUGGUGGCGUCCAGAAGGGCAGAUUAAGG [Maamabi] (Eterna round: R96, puzzle: Exclusion NG 2) | 197 | 96.3 | 48.2 |  |  |  |
| AUAUUUAGCUUUUUGUGAAACAUGAGGAUCACCCAUGUCCUCAUAACUGGACAUUUAAGUCUAGAAGCUCGUCUUAU [Last end dangle 3] (Eterna round: R97, puzzle: Sensor, turn-off variant 1) | 475 | 553 |  |  |  |  |
| UUCGUGCAGCUUUGCUGUACGCGUACAUGAGGAUCACCCAUGUAGGAUAUGGUAGGCAAAGCUUACUAGAAGGAUAGAGUGAUC [Mat - Exclusion NG 3 - Mod of JL - D74] (Eterna round: R96, puzzle: Exclusion NG 3) | 277 | 122 | 92.8 |  |  |  |
| UGAGUGGUGCGAGGAUAUACAUGAGGAUCACCCAUGUAAACGUGUGAGGCUUUGCCUCACACGAUGUAGAAGGCGCACUACUCU [Mat - Exclusion NG 2 - Mod of JL - D13] (Eterna round: R96, puzzle: Exclusion NG 2) | 15.6 | 13.6 | 9.36 |  |  |  |
| AAUUUACAUGAGGAUCACCCAUGUGAGGAUAUGAUACUAUGUACUUCGGUACAUAGUAUCAGAAGGCAUGUGGA [Ex1-3: 91] (puzzle: Exclusion 1) |  |  |  |  | 115 |  |
| AAGAAACAUGAGGAUCACCCAUGUGAGGAUAUGAUGAAGAAAAGAAAAGAAAGAAGAUUCAGAAGGCACAAAGG [salish99-ex1_r3_055] (puzzle: Exclusion 1) |  |  |  | 113 | 48.9 | 80.5 |

| Sequence | apparent KD of MS2 coat protein (input ligand: FMN 200 uM) [nM] | apparent KD of MS2 coat protein (input ligand: none) [nM] | apparent KD of MS2 coat protein [1] [nM] | apparent KD of MS2 coat protein [2] [nM] | apparent KD of MS2 coat protein [3] [nM] | apparent KD of MS2 coat protein [4] [nM] |
| --- | --- | --- | --- | --- | --- | --- |
| ACAUGAGGAUCACCCAUGUCCGGCUGGUCUGUUUCGGCUGUCGAGGAUAUAGUUCGGUGUUCGCGCUAGAAGGCGGGAGCUGGC [Aenatbe mod 59] (Eterna round: R96, puzzle: Exclusion NG 3) | 111 | 82.4 | 56.5 |  |  |  |
| CGCUAUGCCGAGGAUAUUCUUGGUAUGCAUCUAGGAGAAGGCGGCACAUGAGGAUCACCCAUGUCAAAACAUAU [Eternabot (L1) Solution 97] (Eterna round: R97, puzzle: Exclusion 6) | 29 | 28.4 |  |  |  |  |
| AAAUAGCUAGAGGAUAUUGGAUAGGAUUUACUACGAGAAGGUUAGACAUGAGGAUCACCCAUGUUGUGUUGGGA [EX6 #18] (Eterna round: R97, puzzle: Exclusion 6) | 55.2 | 53.4 |  |  |  |  |
| GAAAAGGUAGGAUAUACGAAAAAAAAGGGUAGAAAAAAAACACAUGAGGAUCACCCAUGUAGAAGGACCAAAGG [salish99_ex2_r3_040] (puzzle: Exclusion 2) |  |  |  | 46.3 | 28.5 | 26 |
| UUUUCGUCAGGAUAUUCUACUUAUUACAUGAGGAUCACCCAUGUGUAUGUACAAGGGUGUGAAGAAGGGACUUUUU [LRO-Excl5-10-mod A17d by Omei] (Eterna round: R97, puzzle: Exclusion 5) | 305 | 1070 |  |  |  |  |
| UUGUUACAUGAGGAUCACCCAUGUGAGGAUAUGAGGGUUAGCUUAAAUGGGCUGACUUUCAGAAGGCACAUGAA [JR_Ex1_Sub058] (Eterna round: R97, puzzle: Exclusion 1) | 327 | 235 |  |  |  |  |
| GCCUUAUCCGUCAGGAUAUACAGCCGCUCCCUGUUGUAGAAGGGACAUGAGGAUCACCCAUGUACGUACCACCG [alecazam8] (Eterna round: R97, puzzle: Brourd's mod of Exclusion 4) | 28.1 | 29.2 |  |  |  |  |
| ACAAGCUUUUUGUUCGUCUUAUACACUCCUAAGAGGACAACAUGAGGAUCACCCAUGUAACAAAGACGAACUCAUGU [Sesor Array 10 - Jieux - Sensor v3, turn-off variant 2] (puzzle: Sensor v3, turn-off variant 2) |  |  |  | 14.3 | 96.3 | 11.4 |
| GCACGCAAAGGAUAUCGGAAAGAAAACAUGAGGAUCACCCAUGUAUAUAUCAAAUGGGUGCGAGAAGGUUGAGUGA [Xeleonge] (puzzle: Exclusion 5) |  |  |  | 192 | 60 | 94 |
| UAUUAGCAAGCAAGAUCCUACAUGAGGAUCACCCAUGUGCUCGUCUUAAGCUCAGAAUUACUGAGCGCUCGUCUUAU [Winner reversed engineered 23] (Eterna round: R97, puzzle: Sensor, turn-off variant 1) | 468 | 645 |  |  |  |  |
| CUUGUGUAAGGAUAUGCCUGGCCGUGAGGCCAGAUUGAAUAGCAGAAGGUACAUGAGGAUCACCCAUGUACGGG [jl-ex4-4.60 ViennaUCT mod] (Eterna round: R97, puzzle: Exclusion 4) | 256 | 376 |  |  |  |  |
| AAAAGGCAGCAGGAUAUAGUCACCAUCGGGUUGCUAGAAGGGCUAACAUGAGGAUCACCCAUGUGGGUGCAAAA [Soinsoan] (puzzle: Exclusion 6) |  |  |  | 578 | 452 | 667 |
| CUUUUGUGAGGAUAUCAGUAGUAAAAAAAUAAAAUUACUACUUAGAAGGCACAUGAGGAUCACCCAUGUUCCUC [salish99_ex4_r3_030] (puzzle: Exclusion 4) |  |  |  |  | 25.4 |  |
| GCAUGAAUGUAGGAUAUCUGUAGGGCCCGGACCAGAGAAGGACGCACAUGAGGAUCACCCAUGUCUUGAUGAUC [Eternabot (L1) Solution 15] (Eterna round: R97, puzzle: Exclusion 6) | 540 | 239 |  |  |  |  |
| GGAGGACGAGCAGGAUAUUUUCACAUGAGGAUCACCCAUGUGUAUUCAGGGUAAUCUUCCGCCGAAAAGAAGGGUUCGGAAGAA [JL ViennaUCT Socedi mod 3] (Eterna round: R96, puzzle: Exclusion NG 2) | 47.1 | 25.9 | 27.4 |  |  |  |
| AUUGACUGAGGAUAUUGUACUGCUGACAUGAGGAUCACCCAUGUAUGUUAACUCGGCCGUCGAGAAGGCAGAAAUG [BotMod 21 - Jieux - Exclusion 5] (Eterna round: R97, puzzle: Exclusion 5) | 18.4 | 34.8 |  |  |  |  |
